Assays:
[1] = biological target: recombinant factor B derived from Tachypleus tridentatus (Tachypleus tridentatus) (UniProt Q27081); assay: cell-based or functional assay
[2] = biological target: T1, recombinant protein having factor B activity of Limulus polyphemus (recombinant second protein)
T1 chain: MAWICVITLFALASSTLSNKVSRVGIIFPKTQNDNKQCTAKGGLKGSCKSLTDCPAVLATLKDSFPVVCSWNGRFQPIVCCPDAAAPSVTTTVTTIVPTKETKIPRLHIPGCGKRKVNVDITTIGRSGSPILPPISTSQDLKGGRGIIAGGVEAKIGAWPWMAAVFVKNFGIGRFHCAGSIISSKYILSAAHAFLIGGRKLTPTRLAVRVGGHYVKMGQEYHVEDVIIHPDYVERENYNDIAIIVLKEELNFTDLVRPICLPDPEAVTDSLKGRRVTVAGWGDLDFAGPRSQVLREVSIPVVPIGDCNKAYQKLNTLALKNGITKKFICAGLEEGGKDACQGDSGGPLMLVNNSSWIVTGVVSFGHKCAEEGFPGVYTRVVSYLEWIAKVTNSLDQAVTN

[3] = biological target: T2, recombinant factor B derived from Tachypleus tridentatus, Q27081
T2 chain: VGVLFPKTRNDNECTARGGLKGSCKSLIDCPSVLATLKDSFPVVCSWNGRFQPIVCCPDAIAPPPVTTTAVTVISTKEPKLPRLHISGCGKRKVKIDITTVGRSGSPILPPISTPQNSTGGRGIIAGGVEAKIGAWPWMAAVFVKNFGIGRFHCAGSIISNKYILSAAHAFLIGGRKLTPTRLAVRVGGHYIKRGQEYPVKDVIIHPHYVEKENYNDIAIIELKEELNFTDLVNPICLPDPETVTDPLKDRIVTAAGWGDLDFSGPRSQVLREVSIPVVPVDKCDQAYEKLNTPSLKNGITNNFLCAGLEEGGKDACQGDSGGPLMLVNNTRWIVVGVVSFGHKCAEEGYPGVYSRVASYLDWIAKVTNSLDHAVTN

[4] = biological target: T3, recombinant protein having proclotting enzyme activity of Limulus polyphemus (recombinant third protein)
T3 chain: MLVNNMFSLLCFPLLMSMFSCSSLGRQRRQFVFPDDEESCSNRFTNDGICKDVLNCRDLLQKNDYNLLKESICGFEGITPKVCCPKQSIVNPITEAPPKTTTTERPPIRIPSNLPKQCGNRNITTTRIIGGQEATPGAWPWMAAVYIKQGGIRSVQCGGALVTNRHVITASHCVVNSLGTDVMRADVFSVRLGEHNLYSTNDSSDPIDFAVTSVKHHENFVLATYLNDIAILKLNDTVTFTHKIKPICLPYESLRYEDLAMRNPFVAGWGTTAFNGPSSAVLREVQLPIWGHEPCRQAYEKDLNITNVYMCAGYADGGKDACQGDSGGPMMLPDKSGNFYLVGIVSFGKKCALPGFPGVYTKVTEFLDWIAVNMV

Question: With “recombinant factor C derived from the genus Tachypleus (Tachypleus tridentatus) (from UniProt P28175 26-1019) (enzyme)” as the molecule, how does the change in the absorbance in the cascade reaction system (TFC + TFB + TPCE + Boc-LGR-pNA) at endotoxin 0 EU/mL (blank) [1] read?
Answer: The change in the absorbance in the cascade reaction system (TFC + TFB + TPCE + Boc-LGR-pNA) at endotoxin 0 EU/mL (blank) was 0.51 mAbs/min.

Question: What about the change in the absorbance in the cascade reaction system (TFC + TFB + TPCE + Boc-LGR-pNA) at endotoxin 0.05 EU/mL [1] of the same molecule?
Answer: The change in the absorbance in the cascade reaction system (TFC + TFB + TPCE + Boc-LGR-pNA) at endotoxin 0.05 EU/mL was 9.15 mAbs/min.

B1: recombinant factor C derived from Limulus polyphemus (recombinant first protein, protein having factor C activity) (protein)
chain: RGVDLGLCDDTRFECKCGDPGYVFNVPAKQCTYFYRWRPYCKPCDKLEAKDVCPKYKRCQECRAGLDSCVSCPPNKYGTWCSGECQCKNGGICDQRTGACTCRDRYEGVHCEILQGCPLLQSDPQVQEVKNPPNDPQTIDYSCSPGFKLKGVARITCLPNGQWSSFPPKCIRECSMVSSLEHGKVNSPSADLIEGATLRFSCDSPYYLIGQETLTCQGNGQWSGQIPQCQKLVFCPDLDPVSHAEHQVKIGLEQKYGQFPQGTEVTYTCTGNYFLMGLDTLKCNPDGSWSGTQPSCVKVADREVNCDSKAVDFLDDVGEPVRIHCPAGCSLTAGTVWGTAIYHELSSVCRAAIHAGKVPNSGGAVHVVNNGPYSDFLASDLNGIKSDELKSLAQSFRFDYVSSSTAGRKSGCPDGWFEIEENCVYVTSKQRAWERAQGVCTNMAARLAVLDKDVIPSSLTETLRGKGLATTWIGLHRLDADNHFIWELMDRSSVALNDSLTFWAPGEPGNETNCVYLDIQDQLQPVWKTKSCFQPSSFVCMMDLSDKNKAKCKDPGPLENGHAKLHGQSIDGFYAGSSVRYSCEVLHYLSGTETVSCTSNGTWSAPKPRCIKVITCQTPPVPSYGSVDIKPPSRTNSISRVGSPFLRLPRLPLPLARAAGPPPKPRSAPPSTVDLSSKVKLPEGHYRVGSQAIYTCESRYYELLGSQGRRCDSNGKWSGRPASCIPVCGRSDSPRSPFIVNGNSTEIGQWPWQAGISRWLADHNMWFLQCGGALLNEKWIITAAHCVTYSATAEIIDPSQFKFYLGKYYRDDSKDDDYVQVREAIEIHVNPNYDPGNLNFDIALIQLKTSVALTTRVQPICLPTDLTTRENLKEGALAVVTGWGLNENNTYSEMIQQAVLPVVAASTCEQGYQDSGLPLTVTENMFCAGYKQGRYDACSGDSGGPLVFADDSRTDRRWVLEGIVSWGSPNGCGKSNQYGGFTKVNVFLSWIRQFI
Question: With B1 as the molecule, how does the change in the absorbance in the cascade reaction system (LFC + TFB + TPCE + Boc-LGR-pNA) at endotoxin 0 EU/mL (blank) [1] read?
Answer: Its change in the absorbance in the cascade reaction system (LFC + TFB + TPCE + Boc-LGR-pNA) at endotoxin 0 EU/mL (blank) is 0.53 mAbs/min.

Question: And the change in the absorbance in the cascade reaction system (LFC + TFB + TPCE + Boc-LGR-pNA) at endotoxin 0.05 EU/mL [1]?
Answer: The change in the absorbance in the cascade reaction system (LFC + TFB + TPCE + Boc-LGR-pNA) at endotoxin 0.05 EU/mL was 14.3 mAbs/min.

Question: What about the “cleavage of synthetic substrate Boc-LGR-pNA (change in absorbance A405 nm) in the cascade reaction with endotoxin (0 and 0.05 EU/mL); FC + FB + PCE” value [2] of the same molecule?
Answer: The value was “when all the three types of recombinant proteins were included, cleavage of the synthetic substrate was observed”.

Question: What about the “activity in the cascade reaction system relative to TFC” value [3] of the same molecule?
Answer: Its value is “LFC showed the activity about 1.6 times (about 2.2 times when considering the difference in the protein amount) higher than TFC”.

Question: And the “activity in the cascade reaction system relative to TFC, corrected for the difference in the protein amount” value [3]?
Answer: The value was “LFC showed the activity about 1.6 times (about 2.2 times when considering the difference in the protein amount) higher than TFC”.

B2: recombinant protein having factor B activity of Limulus polyphemus (recombinant second protein) (protein)
chain: MAWICVITLFALASSTLSNKVSRVGIIFPKTQNDNKQCTAKGGLKGSCKSLTDCPAVLATLKDSFPVVCSWNGRFQPIVCCPDAAAPSVTTTVTTIVPTKETKIPRLHIPGCGKRKVNVDITTIGRSGSPILPPISTSQDLKGGRGIIAGGVEAKIGAWPWMAAVFVKNFGIGRFHCAGSIISSKYILSAAHAFLIGGRKLTPTRLAVRVGGHYVKMGQEYHVEDVIIHPDYVERENYNDIAIIVLKEELNFTDLVRPICLPDPEAVTDSLKGRRVTVAGWGDLDFAGPRSQVLREVSIPVVPIGDCNKAYQKLNTLALKNGITKKFICAGLEEGGKDACQGDSGGPLMLVNNSSWIVTGVVSFGHKCAEEGFPGVYTRVVSYLEWIAKVTNSLDQAVTN
Question: With B2 as the molecule, how does the “cleavage of synthetic substrate Boc-LGR-pNA (change in absorbance A405 nm) in the cascade reaction with endotoxin (0 and 0.05 EU/mL); FC + FB + PCE” value [4] read?
Answer: The value was “when all the three types of recombinant proteins were included, cleavage of the synthetic substrate was observed”.
